Consider one molecule from patent publication US20200164064A1 (Hoffmann-La Roche, published 2020).

For this test, the target named is T1, Ac-PYY(PEG3-Dig) (N-terminal acetyl; Lys 2 side chain carries PEG3-digoxigenin (digoxigenin-3-carboxymethyl on 12-amino-4,7,10-trioxadodecanoic acid); Pqa at position 3; N-methyl-Arg at position 14; C-terminal amide).
T1 construct: also called DIG-PYY; Dig-PYY
T1 peptide: IKXRHYLNWVTRQXY
The experiment in a line: size exclusion chromatography and SEC-MALS of the non-covalent complex.

Protocol: After completion of the complexation reaction, the complexes were purified by size exclusion chromatography via a Superdex 200 26/60 GL column (320 ml) in 20 mM histidine, 140 mM NaCl, at pH 6.0 at a flow rate of 2.5 ml/min. […] Polypeptide and antibody were incubated for 1.5 hrs. at room temperature. The excess of polypeptide was removed by size exclusion chromatography via a Superose 6 10/300 GL column in 20 mM histidine, 140 mM NaCl, at pH 6.0 at a flow rate of 0.5 ml/min.
For SEC-MALS analysis, 100-500 μg of the respective sample was applied to a Superdex 200 10/300 GL size exclusion column with a flow rate of 0.25-0.5 ml/min with 1×PBS pH 7.4 as mobile phase. Light scattering was detected with a Wyatt miniDawn TREOS/QELS detector, the refractive index was measured with a Wyatt Optilab rEX-detector. Resulting data was analyzed using the software ASTRA (version 5.3.4.14).

B1: murine anti-digoxigenin antibody (hybridoma-derived) (antibody, mouse IgG1, V domains shown)
VH: EVQLVESGGGLVKPGGSLKLSCAVSGFTFSDYAMSWIRQTPENRLEWVASINIGATYAYYPDSVKGRFTISRDNAKNTLFLQMSSLGSEDTAMYYCARPGSPYEYDKAYYSMAYWGPGTSVTVSS
VL: DVQMTQSTSSLSASLGDRVTISCRASQDIKNYLNWYQQKPGGTVKLLIYYSSTLLSGVPSRFSGRGSGTDFSLTITNLEREDIATYFCQQSITLPPTFGGGTKLEIK
notes: also called murine hybridoma-derived antibody
For B1, the binding result is “binds”.
